Data on 4 molecules can be found in patent publication US20190062453A1 (Hoffmann-La Roche, published 2019).

The target of experiment [1] is T1, human DR5 (recombinant, fusion format not stated for the assay) (human, UniProt O14763 56-207).
T1 construct: all antigen constructs carry ECD aa 56-207; also called hu DR5; huDR5
Kind of experiment: SPR (Biacore), affinity, 2+2 captured and DR5 injected. (In general: SPR reads the build-up and loss of mass on a sensor chip optically.)

In experiment [2] the target is T2, Cynom. DR5 (ECD)-AcTev-Fc-Avi (cynomolgus).
T2 construct: also called cynomolgus DR5; cy DR5
The description is as above.

For experiment [3], the target named is murine FAP on recombinant 3T3 cells (murine, UniProt P97321 1-761). Kind of experiment: cell-based or functional assay.
Experiment [4] has as its target T1, human DR5 (recombinant, fusion format …). Description: SPR (Biacore), 2+2 over immobilised DR5 ECD.
Experiment [5] addresses T2, Cynom. DR5 (ECD)-AcTev-Fc-Avi. Description: SPR (Biacore), 2+2 over immobilised DR5 ECD.
The target in experiment [6] is T3, Human FAP ectodomain + poly-lys-tag + his6-tag (human, UniProt Q12884 27-760).
T3 construct: also called recombinant soluble human FAP; hFAP
Kind of experiment: SPR (Biacore), bispecific antibody bound to immobilised human DR5-Fc, recombinant human FAP as second analyte (simultaneous binding).

Experiment [7] addresses T4, cynomolgus DR5 in the TagLite assay (cynomolgus).
T4 construct: also called cy DR5 (TagLite)
Kind of experiment: TagLite TR-FRET on cells.

Experiment [8] concerns the target T5, Murine FAP ectodomain + poly-lys-tag + his6-tag (murine, UniProt P97321 27-761).
T5 construct: also called recombinant soluble murine FAP
Description: SPR (Biacore), bispecific antibody bound to immobilised human DR5-Fc, recombinant soluble murine FAP as second analyte (simultaneous binding).

Experiment [9] deals with T3, Human FAP ectodomain + poly-lys-tag + …. Description: SPR (Biacore), bispecific antibody bound to immobilised human DR5-Fc, recombinant soluble human FAP as second analyte (simultaneous binding).
For experiment [10], the target named is T6, Hu DR5 (ECD)-AcTev-Fc-Avi (human).
T6 construct: dimeric Fc fusion, biotinylated on the Avi tag where immobilised on streptavidin; also called human DR5-Fc; huDR5Fc
Kind of experiment: SPR (Biacore), biotinylated human DR5-Fc on a streptavidin chip, bispecific antibody as first analyte.

The target of a further experiment is T7, human FAP on cells (human, UniProt Q12884 1-760).
T7 construct: whole, on cells; also called human FAP expressed on recombinant HEK293 cells; FAP on GM05389 fibroblasts
Kind of experiment: FACS on recombinant HEK293 cells expressing human FAP.

The target in experiment [11] is T3, Human FAP ectodomain + poly-lys-tag + …. Kind of experiment: Affinity human, method not stated.
In experiment [12] the target is T5, Murine FAP ectodomain + poly-lys-tag + …. Kind of experiment: SPR (Biacore), bispecific antibody bound to immobilised human DR5-Fc, recombinant soluble murine FAP as second analyte (simultaneous binding). The source holds these as a separate data set.
In experiment [13] the target is T6, Hu DR5 (ECD)-AcTev-Fc-Avi. Description: SPR (Biacore), biotinylated human DR5-Fc on a streptavidin chip, bispecific antibody as first analyte. The source holds these as a separate data set.
The target in experiment [14] is T3, Human FAP ectodomain + poly-lys-tag + …. Description: SPR (Biacore), bispecific antibody bound to immobilised human DR5-Fc, recombinant soluble human FAP as second analyte (simultaneous binding). The source holds these as a separate data set.

Read-outs that look alike come from different tables or passages of the source.

B1: DR5TAA-0033 (bispecific antibody, human IgG1, kappa)
heavy: not shown
light: ADIVMTQTPASVSEPVGGTVTIKCQASQSISTYLSWYQQKPGQPPKRLIYKASTLASGVPSRFKGSGSGTDFTLTIRDLECADAATYYCQPNSGIATYGAAFGGGTEVVVKRTVAAPSVFIFPPSDEQLKSGTASVVCLLNNFYPREAKVQWKVDNALQSGNSQESVTEQDSKDSTYSLSSTLTLSKADYEKHKVYACEVTHQGLSSPVTKSFNRGEC
chain: EIVLTQSPGTLSLSPGERATLSCRASQSVSRSYLAWYQQKPGQAPRLLIIGASTRATGIPDRFSGSGSGTDFTLTISRLEPEDFAVYYCQQGQVIPPTFGQGTKVEIKSSASTKGPSVFPLAPSSKSTSGGTAALGCLVKDYFPEPVTVSWNSGALTSGVHTFPAVLQSSGLYSLSSVVTVPSSSLGTQTYICNVNHKPSNTKVDKKVEPKSCD
notes: also called 0011-28H1
For orientation: Kd means the concentration at which binding is half-saturated. For the molecule B1, the equilibrium dissociation constant (Kd) in experiment [1] was determined as 9.8 nM; in [2], 20.2 nM. In experiment [3], the “Cell Death Detection ELISA, DLD-1 cells with 3T3 cells expressing murine FAP” value came to 10 fold. Besides, the Avidity in experiment [4] is 0.1 nM; in experiment [5], 3.72 nM; in [7], 0.3 nM. Moreover, the binding result in [6] is listed as “binds”.

B2: Drozitumab-X-FAP_A (2 + 2) (bispecific antibody, human IgG1, lambda)
heavy: not shown
chain: EIVLTQSPGTLSLSPGERATLSCRASQSVSRSYLAWYQQKPGQAPRLLIIGASTRATGIPDRFSGSGSGTDFTLTISRLEPEDFAVYYCQQGQVIPPTFGQGTKVEIKSSASTKGPSVFPLAPSSKSTSGGTAALGCLVKDYFPEPVTVSWNSGALTSGVHTFPAVLQSSGLYSLSSVVTVPSSSLGTQTYICNVNHKPSNTKVDKKVEPKSCD
light: SELTQDPAVSVALGQTVRITCSGDSLRSYYASWYQQKPGQAPVLVIYGANNRPSGIPDRFSGSSSGNTASLTITGAQAEDEADYYCNSADSSGNHVVFGGGTKLTVLGQPKAAPSVTLFPPSSEELQANKATLVCLISDFYPGAVTVAWKADSSPVKAGVETTTPSKQSNNKYAASSYLSLTPEQWKSHRSYSCQVTHEGSTVEKTVAPTECS
notes: 4G8 VH-CL fused to the C-terminus of the Drozitumab heavy chain; also called GA803_A01_E02A_014
B2: the binding result (in experiment [8]; in experiment [9]; in [10]; in the experiment with human FAP on cells) was “binds” each time.

B3: 28H1 (antibody, V domains shown)
VH: EVQLLESGGGLVQPGGSLRLSCAASGFTFSSHAMSWVRQAPGKGLEWVSAIWASGEQYYADSVKGRFTISRDNSKNTLYLQMNSLRAEDTAVYYCAKGWLGNFDYWGQGTLVTVSS
VL: EIVLTQSPGTLSLSPGERATLSCRASQSVSRSYLAWYQQKPGQAPRLLIIGASTRATGIPDRFSGSGSGTDFTLTISRLEPEDFAVYYCQQGQVIPPTFGQGTKVEIK
notes: also called FAP(28H1); 28H1 (IgG)
As for B3, in experiment [11], the Kd came out at 2.6 nM.

B4: Drozitumab-X-FAP_B (2 + 2) (bispecific antibody, human IgG1, lambda)
heavy: not shown
chain: not shown
light: SELTQDPAVSVALGQTVRITCSGDSLRSYYASWYQQKPGQAPVLVIYGANNRPSGIPDRFSGSSSGNTASLTITGAQAEDEADYYCNSADSSGNHVVFGGGTKLTVLGQPKAAPSVTLFPPSSEELQANKATLVCLISDFYPGAVTVAWKADSSPVKAGVETTTPSKQSNNKYAASSYLSLTPEQWKSHRSYSCQVTHEGSTVEKTVAPTECS
notes: 4G8 VL-CH1 fused to the C-terminus of the Drozitumab heavy chain; also called GA803_A01_E02A_015
As to B4, the binding result (in [12]; in experiment [13]; with human FAP on cells; in experiment [14]) was “binds” each time.
